Laboratory results from US20050148532A1.

Target: histidine tagged p85 with serine 83 mutated to alanine (p85^S83A) (UniProt P27986)
Test: cell-based or functional assay

Chain of HA-14-3-3 zeta (hemagglutinin-tagged 14-3-3 zeta) (P63103 whole entry): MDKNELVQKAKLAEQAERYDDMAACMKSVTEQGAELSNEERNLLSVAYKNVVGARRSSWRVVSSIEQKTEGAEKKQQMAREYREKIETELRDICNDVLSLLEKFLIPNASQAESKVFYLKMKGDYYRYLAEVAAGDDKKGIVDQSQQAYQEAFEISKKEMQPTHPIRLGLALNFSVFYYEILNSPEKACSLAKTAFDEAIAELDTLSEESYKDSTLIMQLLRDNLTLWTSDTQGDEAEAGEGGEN

## HA-14-3-3 zeta (hemagglutinin-tagged 14-3-3 zeta) (from UniProt P63103 1-245)
  decrease in activation of PI3K (production of PIP3 in PY20 immunoprecipitates): 35%
